Substrate: Nc1ncnc2c1ncn2[C@@H]1O[C@H](COP(=O)(O)OP(=O)(O)OP(=O)(O)O)[C@@H](O)[C@H]1O
Experiment: purified protein
Assay type: biochemical, Saccharomyces cerevisiae
Settings: 3′-(dT)40 partial duplex DNA, monomer condition (10 nM Pif1 then wash), 5 mM MgCl2, 60 mM KCl, pH 7.5, 22 °C

B1: Pif1 (Saccharomyces cerevisiae S288C) (protein)
chain: RSNNFIQAQLKHPSILSKEDLDLLSDSDDWEEPDCIQLETEKQEKKIITDIHKEDPVDKKPMRDKNVMNFINKDSPLSWNDMFKPSIIQPPQLISENSFDQSSQKKSRSTGFKNPLRPALKKESSFDELQNNSISQERSLEMINENEKKKMQFGEKIAVLTQRPSFTELQNDQDDSNLNPHNGVKVKIPICLSKEQESIIKLAENGHNIFYTGSAGTGKSILLREMIKVLKGIYGRENVAVTASTGLAACNIGGITIHSFAGIGLGKGDADKLYKKVRRSRKHLRRWENIGALVVDEISMLDAELLDKLDFIARKIRKNHQPFGGIQLIFCGDFFQLPPVSKDPNRPTKFAFESKAWKEGVKMTIMLQKVFRQRGDVKFIDMLNRMRLGNIDDETEREFKKLSRPLPDDEIIPAELYSTRMEVERANNSRLSKLPGQVHIFNAIDGGALEDEELKERLLQNFLAPKELHLKVGAQVMMVKNLDATLVNGSLGKVIEFMDPETYFCYEALTNDPSMPPEKLETWAENPSKLKAAMEREQSDGEESAVASRKSSVKEGFAKSDIGEPVSPLDSSVFDFMKRVKTDDEVVLENIKRKEQLMQTIHQNSAGKRRLPLVRFKASDMSTRMVLVEPEDWAIEDENEKPLVSRVQLPLMLAWSLSIHKSQGQTLPKVKVDLRRVFEKGQAYVALSRAVSREGLQVLNFDRTRIKAHQKVIDFYLTLSSAESAYKQLEADEQVKKRKLDYAPGPKYKAKSKSKSNSPAPISATTQSNNGIAAMLQRHSRKRFQLKKESNSNQVHSLVSDEPRGQDTEDHILE
notes: purified His6-tagged Pif1, purification as in Boule et al. 2005; monomer
Km: 110 ± 17 µM

Reference: article PMC3999857, “Periodic DNA patrolling underlies diverse functions of Pif1 on R-loops and G-rich DNA” (eLife, 2014)
